Measured values taken from article PMC9170038.

B1: Eterna 7691283 (Same State - Arginine B) (ssRNA)
RNA: AUUCUAUUGUGAAGGAGCGCGACUAGUAGUGAUGUUACUAUAUGACUUUAGUCUUAAUUCUCGCAGGUAGGUCGCACAAUAUAUA
B2: Eterna 6120937 (Same State NG 1) (ssRNA)
RNA: GCCAUCACAUGAGGAUAUGGCACCGUUUCGGUGCCAGAAGGCAUGUCAUAAGACAUGAGGAUCACCCAUGUAGUUAAGAUGGCA
B3: Eterna 7727518 (Exclusion - Tryptophan B) (ssRNA)
RNA: GUUUUGGGAUCGGCCGCCACUACAUGAGGAUCACCCAUGUGGACAAAUAGGGUUUUUAAGCUCGGUAGGACCGGGAUUCGAACAU
B4: Eterna 7646211 (Same State - Theophylline A) (ssRNA)
RNA: CAUACUUUAGUAUGUAAUGUGGACAGUGAUACCAGAUACGAAAGUAUCCCUUGGCAGCACAACAUGAGGAUCACCCAUGUAUUUU
B5: Eterna 1179 (Exclusion - Theophylline B) (ssRNA)
RNA: CACCCAGUCCUCGAUACCAGACUGGCACGUCAAAAGGUCCAGUGAUGUUGAGCCUAACAAGUCCCUUGGCAGCGACCAGUGUAUU
B6: Eterna 7745506 (Same State - Arginine B) (ssRNA)
RNA: CCGGGCGGCCGAAGGAGCGGGCGGACCCGAGUGAUGUUCGGGUGGCCCGUGAGGGCCGGUGCCCAGGUAGGUCGCGGAUCCGCCC
B7: Eterna 7740606 (Exclusion - Theophylline A) (ssRNA)
RNA: AAGUCUCGUUAAUUCGAGGUUACGAUCGAUACCAGUAGCGAGAGGUACCCUUGGCAGCGAAGUGAGUGAUGUUCAUGAAAGAAGA
B8: Eterna 6061522 (Exclusion 3) (ssRNA)
RNA: AAUUCGGCAGGAUAUACAUGAGGAUCACCCAUGUAAAUUUUUCGUUUAACUUGAAUGUGUAGAAGGGCCAUUUA
B9: Eterna 7739799 (Exclusion - Arginine A) (ssRNA)
RNA: CAGACCACAGAGUGAUGUUCUGUGUCCGAAGGAGCGCGCGAGAGCGCAGGUAGGUCGCGGAUACAGUUGACGUACCUUCAAGACA
B10: Eterna 5989570 (Sensor, turn-off variant 1) (ssRNA)
RNA: GUCAUCACACAUGGGAUCAACAUGAGGAUCACCCAUGUUGUCAAGUUUUUUGCUCGUCUUAUAAUACGUUUGAUGAC
B11: Eterna 15484 (Exclusion 5) (ssRNA)
RNA: CUUUGAUGAGGAUAUCGAGGUUAGUACAUGAGGAUCACCCAUGUUAUCCAGGUGUCGGAUCGAGAAGGUAUUGGAC
B12: Eterna 13502 (Sensor v3, turn-off variant 2) (ssRNA)
RNA: AGUAGAUCUACGCUUGCGUGGAUCUGCAAUGUAGGUGUUACAUGAGGAUCACCCAUGUCCUCAUUUGCUCGUCUUAG
B13: Eterna 7698835 (Same State - Arginine B) (ssRNA)
RNA: GCUAUGGUAGGAAGGAGCGCUUAUUUAUUUUUACGAGUGAUGUUCGGUAGUAGAUAGUUAAAGCAGGUAGGUCGCCUACUAUAGC
B14: Eterna 6103763 (Same State NG 3) (ssRNA)
RNA: CAUUGACGACAAUUACAUGAGGAUCACCCAUGUUUUGGGAUGCAGGAUAUGUGGUAUAUUAAUUAACAGAAGGGCAAUAAUUUU
B15: Eterna 6415900 (Inverted Small Loop Same State NG 3) (ssRNA)
RNA: UGCUACGUUUCGUAGCAGUGUCAUCGAGAAGGCCCUGACAUGAGGAUCACCCAUGUUGUUACAUGGGAGGAUAUCGAUGAUACA
B16: Eterna 6030125 (Exclusion 6) (ssRNA)
RNA: GUGCGUGGCUAGGAUAUUGUGGAGUUUUGUCAGCGAGAAGGAGCCACAUGAGGAUCACCCAUGUGGUGUUGCUC
B17: Eterna 9534 (Sensor v3, turn-off variant 2) (ssRNA)
RNA: GGUACUAUCACCUGAGUGGUAGUGCCAUAAGCUUGUGAUACAUGAGGAUCACCCAUGUCCUCAUUUGCUCGUCUUAU
B18: Eterna 6418068 (Inverted Exclusion NG 1) (ssRNA)
RNA: CGUGCUAUGUAGAAGGCAGAUCUGAUUCAGAUCUGAGGAUAUACAUGAGGAUCACCCAUGUUAUGCACCAGCACGAGAGUGCAC
B19: Eterna 7684838 (Same State - Theophylline A) (ssRNA)
RNA: AAAUUUAAUAUAUUUAAAUAAAUAUGUGAUACCAGACAUUUAUAAGUCCCUUGGCAGCACAAUGCAGUGAUGUUGCUUAUAAUAA
B20: Eterna 7716240 (Exclusion - Theophylline B) (ssRNA)
RNA: GGUUUAUAAGAGGAUACCAGUACAAAUAAAGUACAUUAAUAGUAGAGUGAUGUUCUAAAGUACCCUUGGCAGCUUAGAUUAAGUU
B21: Eterna 1699 (Same State - Theophylline B) (ssRNA)
RNA: UCGCAUUAACCGGAUACCAGCUUAGUGGGAUCUUCAAUCCGACAGAAAGUGAUGUUUUCUAGCCCUUGGCAGCCGAGAUUAUCAC
B22: Eterna 7742068 (Same State - Tryptophan B) (ssRNA)
RNA: AGUACAAUGGCGGCCGCCACUCAACGCAGAUCAAAGAUCUGCGUUCACUCAGUGAUGUUGAGUGAGAGGACCGGGCCUUUGUACA
B23: Eterna 7700218 (Same State - Theophylline A) (ssRNA)
RNA: UGGUUAAGCAGUGAUGUUGCAAGUGAUGAUACCAGUUAAGAAGAGAACCCUUGGCAGCAUAAAGUGCGCUCUGAUGAGUGUGCUU
B24: Eterna 1186 (Exclusion - Theophylline B) (ssRNA)
RNA: GAUAGUUAGAGAGAUACCAGCGAUACCUAGAUGGAAAGUGAUGUUCGCCAUCAAUUGCACCGCCCUUGGCAGCUCUCUCUUUGCU
B25: Eterna 6430466 (Small Loop Same State NG 3) (ssRNA)
RNA: UUCGAGCCAAGGCUCGCGAGUACACAGGAUAUGGAAAGUCACAUGAGGAUCACCCAUGUCCAAAACCAGAAGGGUGAGACUAAG
B26: Eterna 11801 (Exclusion 2) (ssRNA)
RNA: AGUAACAGAGGAUAUACUGUUUUAUGUGUUUAUUAUUUUGAACAUGAGGAUCACCCAUGUAGAAGGCUGAAUAA
B27: Eterna 13336 (Sensor for hsa-mir-208a) (ssRNA)
RNA: AGUCCAGCCAGAGCUGGACAAAAGCAUGUACAUGAGGAUCACCCAUGUUCAUGUACAAGCUUUUUGCUCGUCUUAAA
B28: Eterna 1729 (Same State - Tryptophan A) (ssRNA)
RNA: GGAGUCCCGUUAGAUUGUGUAGAUACAAGACGAGGACCGGUACGGCCGCCACUCGCCAUCGUCCAGUGAUGUUGGGCGUCACGGG
B29: Eterna 6117727 (Exclusion NG 3) (ssRNA)
RNA: GGUUGUCAUAGUCAUCCUUUCCGUACAUGAGGAUCACCCAUGUAGGAUAUGCUACUCACAGUGUGGCAGAAGGGCGUGUGUCUU
B30: Eterna 7614506 (Exclusion - Tryptophan A) (ssRNA)
RNA: UAUAUAUAUCACGAACUGUGGUGUAUGUCUCGAGGACCGGUACGGCCGCCACUCGCGCGGCCUCACAUGAGGAUCACCCAUGUUG
B31: Eterna 7686162 (Exclusion - FMN A) (ssRNA)
RNA: UACAUAUAAUUAUUUCUACAUUUAUUUAGUCAGGAUAUCGAUUAAACGAGAAGGGACAAUAUCAAGUGAUGUUUGAUAAUUCAAA
B32: Eterna 1774 (Same State - Tryptophan B) (ssRNA)
RNA: CGAUCUUGGUCGGCCGCCACUACACCCACACCAAAUAGGAAAGUAGCGAGUGAUGUUUGUGACGUUAGGACCGGGACCACUGGUC

How the values were obtained:
[1] = system: Tryptophan aptamer, RNA-MaP condition construct (RNA, aptamer) GGAAAGGCGAGCGGCCGCCACUGUUCGCAGGACCGGGCUCGCCAAAGAAACAACAACAACAAC; experiment: DMS chemical mapping; conditions: 80 mM KCl, 4 mM MgCl2; 100 mM Tris-HCl, pH 7.5, 37 °C
[2] = system: Tryptophan aptamer, Light-up construct (RNA, aptamer) GGGAACGUCUCCGAGUAGGAGACGAAGGGAGAGUGGCAGCUUACAAACUACAGUUGCGGCCGCCACUGCGAAGGACGGGUCCCUCGAAAGAGGUUGAGUAGAGUGUGAGCGCAGGACCGGGCAACAGUAGUAAGUGGGCUGUUGCUUUUCCAAGCUUAUCGAGUAGAUAAGCAAAAAGAAACAACAACAACAAC; experiment: DMS chemical mapping; conditions: 5 mM MgCl2, 1x PBS, pH 6.1, 24 °C
[3] = system: BH_E029 (RNA, aptamer) GGGAGAGUGGCAGCUUACAACGUAACGAUGCGGCCGCCACUGAUCCGACUGGUUAACAGAAAGUCCUGACCAGGUAACGAAUGGUCAGGACCGGGCAUUGUUACGAAGUGGGCUGUUGCUUUUCC; experiment: light-up fluorescence kinetics (malachite green); conditions: 5 mM MgCl2, 1x PBS, pH 6.1, 2.4 mM Trp with malachite green present
[4] = target: T1, MS2 coat protein, dlFG mutant (Escherichia phage MS2, UniProt P03612, del68-81insG); experiment: 4 mM Mg2+; no ligand; RNA-MaP array; 100 mM Tris-HCl pH 7.5, 80 mM KCl, 4 mM MgCl2, 0.1 mg/mL BSA, 1 mM DTT, 0.01 mg/mL yeast tRNA, 0.01% Tween-20; protein 1.5 nM to 3 uM; 37 C (Table S3); conditions: chain copies: 2; label: tethered by stalled RNA polymerase
[5] = target: T1, MS2 coat protein, dlFG mutant; experiment: 4 mM Mg2+; L-tryptophan 2.4 mM; RNA-MaP array; 100 mM Tris-HCl pH 7.5, 80 mM KCl, 4 mM MgCl2, 0.1 mg/mL BSA, 1 mM DTT, 0.01 mg/mL yeast tRNA, 0.01% Tween-20; protein 1.5 nM to 3 uM; 37 C (Table S3); conditions: chain copies: 2; label: tethered by stalled RNA polymerase
[6] = target: T1, MS2 coat protein, dlFG mutant; experiment: 4 mM Mg2+; theophylline 2 mM; RNA-MaP array; 100 mM Tris-HCl pH 7.5, 80 mM KCl, 4 mM MgCl2, 0.1 mg/mL BSA, 1 mM DTT, 0.01 mg/mL yeast tRNA, 0.01% Tween-20; protein 1.5 nM to 3 uM; 37 C (Table S3); conditions: chain copies: 2; label: tethered by stalled RNA polymerase
[7] = target: T1, MS2 coat protein, dlFG mutant; experiment: 4 mM Mg2+; FMN 200 uM; RNA-MaP array; 100 mM Tris-HCl pH 7.5, 80 mM KCl, 4 mM MgCl2, 0.1 mg/mL BSA, 1 mM DTT, 0.01 mg/mL yeast tRNA, 0.01% Tween-20; protein 1.5 nM to 3 uM; 37 C (Table S3); conditions: chain copies: 2; label: tethered by stalled RNA polymerase

Molecule | Kd [4] [µM] | also measured
N[C@@H](Cc1c[nH]c2ccccc12)C(=O)O |  | Kd [1]: 12.09 ± 10.50/-5.19 μM; Kd [2]: 11.59 ± 9.49/-5.00 μM; binding [3]: yes
B1 | > 3 | 
B2 | 0.922 | 
B3 |  | Kd [5]: 0.0675 µM
B4 |  | Kd [6]: 0.0134 µM
B5 | > 3 | 
B6 | > 3 | 
B7 | > 3 | 
B8 | 0.0228 | 
B9 | > 3 | 
B10 | 0.0302 | 
B11 | 0.0149 | 
B12 | 0.312 | 
B13 | > 3 | 
B14 |  | Kd [7]: 0.0355 µM
B15 | 0.0121 | 
B16 | 0.175 | 

Molecule | Kd [4] [µM] | also measured
B17 | 0.6 | 
B18 | 0.00712 | 
UUUGGGCAGUGAUGUUGCCCCUUU (ssRNA) [Eterna 7 (K4-TR_control)] | > 3 | 
B19 | > 3 | 
B20 | > 3 | 
B21 | > 3 | 
B22 | > 3 | 
B23 | > 3 | 
B24 | > 3 | 
B25 | 0.458 | 
B26 | 0.0232 | 
B27 | 0.592 | 
B28 | > 3 | 
B29 | 0.017 | 
B30 |  | Kd [5]: 0.046 µM
B31 | > 3 | 
B32 | > 3 | 
